# Measurements published in the RNAGym collection of RNA variant scans (doi:10.1073/pnas.2313332121).
# B1: TPR t1 (parent)
# chain: GACCAAUCUGCCCUCAGAGCUCGAGAACAUCUUCGGAUGCAGAGGAGGCAGGCUUCGGUGGCGCGAUAGCGCCAACGUCCUCAACCUCCAAUGCAUCCCACCACAUGAUGAUGCCUGAAGAGCCUUGGUUUUUUG
# Variants of: B1
# Experiment: polymerase ribozyme fitness, log enrichment relative to wild type (log ratio); higher = more active; in vitro selection for triplet polymerase activity
# Summary of the method: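 A single round of triplicate in vitro selection, including frozen incubation at −7 °C, was applied to PCR-built, transcribed mutant libraries of each subunit of a heterodimeric triplet polymerase ribozyme. Illumina sequencing of input and output libraries retained genotypes with ≥10 input reads and ≥1 read per output. Fitness is the base-2 logarithm of genotype enrichment divided by wild-type enrichment, from inverse-variance-weighted replicate averages.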
row,Variant,polymerase ribozyme fitness (log ratio)
1,A50U C124A,0.575
2,G52A G71U U87A U131G,-2.35
3,G51U U78C A111C C123U,-6.69
4,A50U U59A G60C C80G C88U C123U,-1.82
5,G52C C56G G71U,-3.4
6,A50U G71U,-1.94
7,G51U G58U G63A G117C,-6.73
8,G51U C79A U87C U106A,-2.68
9,A50U G113C,-3.07
10,G51C C56U G110A,-5.23
11,A50U C86A A118U,-1.06
12,G51A G120U,-2.59
13,A50U G63C,-1.63
14,G51A A95C,-3.42
15,G51U A66U A111C,-6.21
16,G52C U116C,-1.72
17,G52C C70A G117C,-5.92
18,G52C C56U C82U A84C,0.272
19,G52A C72U C85G,-2.39
20,A50U G69A U81A A100C,-4.08
21,A50U C72U C73G G122A C124U,-0.982

row,Variant,polymerase ribozyme fitness (log ratio)
1,A50U C72U U106C,-0.84
2,G51C G120C,-2.56
3,G51U G71A C85A C101U,-7.55
4,G52C C89G G127C,-2.37
5,A50U G57C G60C C85G G113A,-2.27
6,A50U C123G U131G,0.128
7,A50G U106G U116G,-3.36
8,G51A A84G A108C U112G,-8.09
9,A50U C82U A119U,-2.14
10,G51U C62A G110C,-8.04
11,G51U G120A,-2.64
12,G52A C86G,-0.287
13,G52A G69U C79G U87A A90U U116A,-3.3
14,G52C G120C,-0.0985
15,G52C G120U,-0.715
16,G52C C72G C104U,-0.739
17,G51A C124U,-1.14
18,G52A G63U,-2.08
19,A50U C53U C64G A111U C124U,-8.17
20,G52A C73U,-0.414
21,G52A U116C,-0.22

row,Variant,polymerase ribozyme fitness (log ratio)
1,A50U C62U C70G G117U G120A,-6.48
2,A50U A119U,-1.31
3,G51U C114U,-5.14
4,G51C C73G,-4.22
5,G51U U55A C72A U129A U133A,-4.5
6,G51A G122A G135U,-4.44
7,G51C C79U,-3.54
8,G52C C70U U106A,-1.07
9,A50U C53A U55C C73U,-0.723
10,A50U C70G A84C C115A,-4.54
11,A50U C56U C64U U78C C85A U109A,-6.76
12,A50U A108G,-3.01
13,A50U G61U G110A G127A,-3.84
14,A50U G77A C97U U106C,-2.11
15,G52A C56A U106A,-1.08
16,G51U G71C U78C C114A,-7.09
17,A50U C104U,-0.896
18,G51U C53U G61U U130A,-3.08
19,G51U G63A G117U,-5.99
20,G52C G127U,-1.33
21,G51C U78C,-4.89

row,Variant,polymerase ribozyme fitness (log ratio)
1,G51C A111G,-4.71
2,G51U G122A,-3.78
3,G52U A68U A83C C101G C115U,-7.12
4,G51A G60U,-1.77
5,G51U G93A,-4.12
6,G51A G57C U59C U96G U106A A118G,-5.28
7,A50U G57U G135A,-2.6
8,A50U G120C,0.234
9,G51A A66U,-5.73
10,G52A G122A C124U,0.227
11,G52C G93A G113A A119G,-1.29
12,A50U U55C U92G A118G,-5.06
13,G52C C114U G127U U133A,-6.16
14,A50U C56U A83C,-1.21
15,G51U U106G G110U C124A,-6.4
16,A50U C70G,-4.57
17,G52C G71U C73U C104U G120C,-2.42
18,G52A C86A A111C,-3.28
19,G52A C56U,-0.699
20,G51A C64U A105G C115G,-8.49
21,A50U G71U G127A,-2.67
